Five molecules from patent US20180085469A1 can be followed below.

A word on the Kd: it is a measure of binding affinity in units of concentration. Low values mean tighter binding, high ones weaker binding.

The target of assay [1] is CD22 (human) (UniProt P20273). The assay can be described thus: flow cytometry, WSU-FSCCL cells, FITC goat anti-human IgG detection. (Flow cytometry measures light scatter and fluorescence of single cells or particles in a stream.)
Assay [2] addresses CD22 (human) (UniProt P20273). The assay can be described thus: flow cytometry, Jeko-1 cells, FITC goat anti-human IgG detection.
Assay [3] addresses CD22 (human) (UniProt P20273). The assay can be described thus: flow cytometry, Raji cells, FITC goat anti-human IgG detection.
Assay [4] has as its target CD22 (human) (UniProt P20273). The assay can be described thus: flow cytometry, 697 cells, FITC goat anti-human IgG detection.
For assay [5], the target named is CD22 (human) (UniProt P20273). The assay can be described thus: flow cytometry, MN-60 cells, FITC goat anti-human IgG detection.
The target in assay [6] is CD22 (human) (UniProt P20273). The assay is described as follows: flow cytometry, REH cells, FITC goat anti-human IgG detection.
The target of assay [7] is CD22 (human) (UniProt P20273). The assay can be described thus: flow cytometry, Ramos cells, FITC goat anti-human IgG detection.
Assay [8] deals with CD22 (human) (UniProt P20273). The assay can be described thus: flow cytometry, Daudi cells, FITC goat anti-human IgG detection.
In assay [9] the target is CD22 (human) (UniProt P20273). The assay is described as follows: flow cytometry, RS4;11 cells, FITC goat anti-human IgG detection.
The target of assay [10] is Human trophoblast cell-surface antigen (TROP-2) (human) (UniProt P09758). The assay is described as follows: flow cytometry, surface, NCI-N87 cells.
Chain of Human trophoblast cell-surface antigen (TROP-2) (human) (P09758 27-323): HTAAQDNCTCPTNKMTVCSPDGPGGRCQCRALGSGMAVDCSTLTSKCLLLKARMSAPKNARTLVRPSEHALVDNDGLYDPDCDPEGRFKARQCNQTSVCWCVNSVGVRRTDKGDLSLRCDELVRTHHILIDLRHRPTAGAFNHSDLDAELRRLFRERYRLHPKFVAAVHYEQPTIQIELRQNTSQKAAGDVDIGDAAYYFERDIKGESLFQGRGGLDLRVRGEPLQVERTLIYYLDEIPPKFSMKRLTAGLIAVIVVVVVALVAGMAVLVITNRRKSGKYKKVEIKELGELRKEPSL
Assay [11] shares this target. The assay is described as follows: flow cytometry, surface, Capan-1 cells.
Assay [12] deals with CD74 (invariant chain, Ii) (human) (UniProt P04233). The assay is described as follows: flow cytometry, surface and cytoplasmic (permeabilized), HuH-7 cells; ratio to background.
Chain of CD74 (invariant chain, Ii) (human) (P04233 whole entry, change not shown): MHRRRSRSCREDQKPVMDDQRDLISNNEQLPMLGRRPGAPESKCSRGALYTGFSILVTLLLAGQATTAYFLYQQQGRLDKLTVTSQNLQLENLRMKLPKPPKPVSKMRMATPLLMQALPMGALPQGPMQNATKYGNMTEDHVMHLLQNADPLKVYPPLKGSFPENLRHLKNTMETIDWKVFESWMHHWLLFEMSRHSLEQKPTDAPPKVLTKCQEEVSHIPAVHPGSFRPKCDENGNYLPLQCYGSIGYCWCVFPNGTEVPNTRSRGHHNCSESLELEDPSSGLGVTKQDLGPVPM
For assay [13] the target is unchanged. The assay can be described thus: flow cytometry, surface and cytoplasmic (permeabilized), Hep-G2 cells.
The target is the same in assay [14]. The assay can be described thus: flow cytometry, surface, A-375 cells; ratio to background (GAH-FITC only).
The target is the same in assay [15]. The assay can be described thus: flow cytometry, surface, HuH-7 cells; ratio to background (GAH-FITC only).
Assay [16] shares this target. The assay can be described thus: flow cytometry, surface, Hep-G2 cells, GAH-FITC detection.
For assay [17] the target is unchanged. The assay is described as follows: flow cytometry, surface and cytoplasmic (permeabilized), HuH-7 cells.
For assay [18] the target is unchanged. The assay is described as follows: flow cytometry, surface and cytoplasmic (permeabilized), Capan-1 cells.
Assay [19] has the same target. The assay can be described thus: flow cytometry, surface and cytoplasmic (permeabilized), Raji cells.
For assay [20] the target is unchanged. The assay can be described thus: flow cytometry, surface and cytoplasmic (permeabilized), NCI-N87 cells; ratio to background.
Assay [21] has the same target. The assay can be described thus: flow cytometry, surface, NCI-N87 cells, GAH-FITC detection.
The target is the same in assay [22]. The assay is described as follows: flow cytometry, surface, Raji cells, GAH-FITC detection.
Assay [23] shares this target. The assay is described as follows: flow cytometry, surface, A-375 cells, GAH-FITC detection.
Assay [24] has the same target. The assay is described as follows: flow cytometry, surface and cytoplasmic (permeabilized), Hep-G2 cells; ratio to background.
Assay [25] shares this target. The assay is described as follows: flow cytometry, surface and cytoplasmic (permeabilized), Capan-1 cells; ratio to background.
For assay [26] the target is unchanged. The assay can be described thus: flow cytometry, surface and cytoplasmic (permeabilized), A-375 cells; ratio to background.
Assay [27] has the same target. The assay is described as follows: flow cytometry, surface and cytoplasmic (permeabilized), Hs746T cells.
Assay [28] has the same target. The assay is described as follows: flow cytometry, surface, Raji cells; ratio to background (GAH-FITC only).
Assay [29] has the same target. The assay can be described thus: flow cytometry, surface and cytoplasmic (permeabilized), Raji cells; ratio to background.
The target is the same in assay [30]. The assay can be described thus: flow cytometry, surface and cytoplasmic (permeabilized), NCI-N87 cells.
The target is the same in assay [31]. The assay is described as follows: flow cytometry, surface and cytoplasmic (permeabilized), Hs746T cells; ratio to background.
Assay [32] has the same target. The assay can be described thus: flow cytometry, surface, Hs746T cells, GAH-FITC detection.
Assay [33] shares this target. The assay can be described thus: flow cytometry, surface, NCI-N87 cells; ratio to background (GAH-FITC only).
Assay [34] shares this target. The assay can be described thus: cell binding assay on antigen-positive cells.
Assay [35] has the same target. The assay can be described thus: flow cytometry, surface, Hep-G2 cells; ratio to background (GAH-FITC only).
Assay [36] has the same target. The assay can be described thus: flow cytometry, surface, Hs746T cells; ratio to background (GAH-FITC only).
The target is the same in assay [37]. The assay is described as follows: flow cytometry, surface, HuH-7 cells, GAH-FITC detection.
Assay [38] has the same target. The assay can be described thus: flow cytometry, surface and cytoplasmic (permeabilized), A-375 cells.
Assay [39] shares this target. The assay is described as follows: flow cytometry, surface, Capan-1 cells, GAH-FITC detection.
Assay [40] has the same target. The assay is described as follows: flow cytometry, surface, Capan-1 cells; ratio to background (GAH-FITC only).
For assay [41], the target named is CEACAM6 (human) (UniProt P40199). The assay can be described thus: flow cytometry, surface, NCI-N87 cells.
Chain of CEACAM6 (human) (P40199 35-320): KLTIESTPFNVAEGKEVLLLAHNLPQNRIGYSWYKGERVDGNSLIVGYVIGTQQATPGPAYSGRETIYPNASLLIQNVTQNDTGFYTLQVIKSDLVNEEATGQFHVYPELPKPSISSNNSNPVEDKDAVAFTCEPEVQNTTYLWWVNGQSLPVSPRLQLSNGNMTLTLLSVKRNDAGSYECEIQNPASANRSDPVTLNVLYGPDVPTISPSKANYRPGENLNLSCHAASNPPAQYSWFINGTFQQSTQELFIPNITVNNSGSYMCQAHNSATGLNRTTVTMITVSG
For assay [42] the target is unchanged. The assay can be described thus: flow cytometry, surface, HuH-7 cells.
Assay [43] has the same target. The assay can be described thus: flow cytometry, surface, Hep-G2 cells.
Assay [44] has as its target T1, CD20 (human) (UniProt P11836).
T1 sequence (looked up): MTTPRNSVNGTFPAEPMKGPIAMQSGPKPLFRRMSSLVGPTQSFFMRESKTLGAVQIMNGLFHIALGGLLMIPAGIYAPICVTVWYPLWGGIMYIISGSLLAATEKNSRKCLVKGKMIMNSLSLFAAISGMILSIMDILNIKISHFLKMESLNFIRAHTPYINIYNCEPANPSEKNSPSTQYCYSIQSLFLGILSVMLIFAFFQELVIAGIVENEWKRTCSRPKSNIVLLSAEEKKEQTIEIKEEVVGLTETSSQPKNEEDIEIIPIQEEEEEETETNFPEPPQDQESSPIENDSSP
The assay can be described thus: flow cytometry, WSU-FSCCL cells, FITC goat anti-human IgG detection.

In assay [45] the target is T1, CD20 (human). The assay is described as follows: flow cytometry, Jeko-1 cells, FITC goat anti-human IgG detection.
The target of assay [46] is T1, CD20 (human). The assay is described as follows: flow cytometry, Raji cells, FITC goat anti-human IgG detection.
Assay [47] deals with T1, CD20 (human). The assay can be described thus: flow cytometry, 697 cells, FITC goat anti-human IgG detection.
The target of assay [48] is T1, CD20 (human). The assay can be described thus: flow cytometry, MN-60 cells, FITC goat anti-human IgG detection.
Assay [49] deals with T1, CD20 (human). The assay is described as follows: flow cytometry, REH cells, FITC goat anti-human IgG detection.
Assay [50] deals with T1, CD20 (human). The assay can be described thus: flow cytometry, Ramos cells, FITC goat anti-human IgG detection.
The target in assay [51] is T1, CD20 (human). The assay is described as follows: flow cytometry, Daudi cells, FITC goat anti-human IgG detection.
The target in assay [52] is T1, CD20 (human). The assay can be described thus: flow cytometry, RS4;11 cells, FITC goat anti-human IgG detection (background 4.1).

On to “epratuzumab (hLL2), humanized anti-CD22 IgG1 (antibody)”, for which the Median fluorescence came to 7.7 with CD22 (human) [1]; 11.2 in the assay with CD22 (human) [2]; 45.9 in the assay with CD22 (human) [3]; 16 in the assay with CD22 (human) [4]; 10.3 with CD22 (human) [5]; 22.9 with CD22 (human) [6]. The Median fluorescence in the assay with CD22 (human) [7] is 40.8; with CD22 (human) [8] it was 145; in the assay with CD22 (human) [9], 23.3.

Take “humanized RS7 IgG (hRS7), anti-TROP-2 humanized antibody”: the MFI stood at 795 in assay [10] and 237 in assay [11].

As for “milatuzumab (hLL1), humanized anti-CD74 antibody”, the MFI Ratio hLL1:bkgd in [12] was found to be 28.5; in [14] it was 5.3; in assay [15], 1.6; in assay [20], 36.7; in assay [24], 31.2; in assay [25] it was 49.6. Further, the MFI Ratio hLL1:bkgd is 30.8 in assay [26]; 19.6 in assay [28]; 28.6 in [29]; 28.8 in [31]; 1.3 in [33]; 1.5 in assay [35]. Also, the values for the MFI Ratio hLL1:bkgd in assay [36] and in assay [40] were 2.1 and 1.8, respectively. Moreover, the MFI in assay [13] was 156; in assay [16] it was 9; in assay [17] it was 114; in [18], 248; in [19], 143; in assay [21] it was 5. In addition, the MFI was found to be 59 in [22]; 16 in assay [23]; 144 in assay [27]; 220 in [30]; 17 in assay [32]; 8 in assay [37]. Moreover, the figures for the MFI in assay [38] and in assay [39] were 185 and 22, respectively. Further, in assay [34], the Kd amounted to 0.77 nM.

B1: hMN-15, humanized anti-CEACAM6 antibody (antibody, from a related filing, IgG1, V domains shown)
VH: QVQLVESGGGVVQPGRSLRLSCSSSGFALTDYYMSWVRQAPGKGLEWLGFIANKANGHTTDYSPSVKGRFTISRDNSKNTLFLQMDSLRPEDTGVYFCARDMGIRWNFDVWGQGTPVTVSS
VL: DIQLTQSPSSLSASVGDRVTMTCSASSRVSYIHWYQQKPGKAPKRWIYGTSTLASGVPARFSGSGSGTDFTFTISSLQPEDIATYYCQQWSYNPPTFGQGTKVEIKR
For B1, the MFI turned out to be 1120 with CEACAM6 (human) [41], 81 with CEACAM6 (human) [42] and 175 with CEACAM6 (human) [43].

B2: veltuzumab (hA20), humanized anti-CD20 IgG1 (antibody, from a related filing, V domains shown, part only)
VH: QVQLQQSGAEVKKPGSSVKVSCKASGYTFTSYNMHWVKQAPGQGLEWIGAIYPGNGDTSYNQKFKGKATLTADESTNTAYMELSSLRSEDTAFYYCARSTYYGGDWYFDVWGQGTTVTVSS
VL: DIQLTQSPSSLSASVGDRVTMTCRASSSVSYIHWFQQKPGKAPKPWIYATSNLASGVPVRFSGSGSGTDYTFTISSLQPEDIATYYCQQWTSNPPTFGGGTKLEIK
Take B2: the Median fluorescence in the assay with CD20 (human) [44] was 97.4; in the assay with CD20 (human) [45], 605; with CD20 (human) [46], 422; with CD20 (human) [47], 6.9; with CD20 (human) [48], 21.5; with CD20 (human) [49], 12.3. Also, the Median fluorescence turned out to be 620 in the assay with CD20 (human) [50], 815 with CD20 (human) [51] and 3.7 in the assay with CD20 (human) [52].
